# T1: C5aR1 mutants (N-terminus, ECL1, ECL2, ECL3) (Homo sapiens, UniProt P21730, G12E/K279N)
# T1 sequence (P21730 with tags, fused parts or gaps G12E/K279N): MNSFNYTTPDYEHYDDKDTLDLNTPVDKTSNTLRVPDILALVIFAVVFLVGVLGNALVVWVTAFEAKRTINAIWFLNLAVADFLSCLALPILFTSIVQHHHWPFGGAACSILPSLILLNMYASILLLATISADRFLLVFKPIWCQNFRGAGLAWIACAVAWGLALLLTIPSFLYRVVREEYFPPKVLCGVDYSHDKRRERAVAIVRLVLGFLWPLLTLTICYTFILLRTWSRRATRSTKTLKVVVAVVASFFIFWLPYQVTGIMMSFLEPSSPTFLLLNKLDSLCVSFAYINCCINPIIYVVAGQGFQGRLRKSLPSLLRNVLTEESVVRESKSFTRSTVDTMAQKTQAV
# T2: C5aR1 mutants (N-terminus, ECL1, ECL2, ECL3) (Homo sapiens, UniProt P21730, K279N/Y14F)
# T2 sequence (P21730 with tags, fused parts or gaps Y14F/K279N): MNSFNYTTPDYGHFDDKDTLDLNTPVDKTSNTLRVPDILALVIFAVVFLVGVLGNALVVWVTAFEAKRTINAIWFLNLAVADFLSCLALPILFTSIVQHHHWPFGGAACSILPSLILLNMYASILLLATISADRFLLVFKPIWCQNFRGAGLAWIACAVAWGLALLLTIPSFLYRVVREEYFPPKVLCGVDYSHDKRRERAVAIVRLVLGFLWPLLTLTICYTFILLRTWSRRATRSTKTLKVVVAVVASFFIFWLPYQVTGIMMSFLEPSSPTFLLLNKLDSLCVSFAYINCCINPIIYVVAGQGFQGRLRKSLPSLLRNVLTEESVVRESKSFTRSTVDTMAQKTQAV
# T3: C5aR1 mutants (N-terminus, ECL1, ECL2, ECL3) (Homo sapiens, UniProt P21730, E179A/K279N)
# T3 sequence (P21730 with tags, fused parts or gaps E179A/K279N): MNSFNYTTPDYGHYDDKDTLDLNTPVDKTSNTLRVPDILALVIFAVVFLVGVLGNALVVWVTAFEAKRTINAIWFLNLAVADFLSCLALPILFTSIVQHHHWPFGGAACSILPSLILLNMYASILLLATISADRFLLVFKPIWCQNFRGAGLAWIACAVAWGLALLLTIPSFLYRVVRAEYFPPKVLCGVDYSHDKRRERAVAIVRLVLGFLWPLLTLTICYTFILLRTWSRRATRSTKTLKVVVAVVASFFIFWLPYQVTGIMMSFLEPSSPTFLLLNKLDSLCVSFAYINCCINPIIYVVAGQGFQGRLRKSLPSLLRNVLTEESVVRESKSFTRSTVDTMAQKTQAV
# T4: C5aR1 mutants (N-terminus, ECL1, ECL2, ECL3) (Homo sapiens, UniProt P21730, K17N/K279N)
# T4 sequence (P21730 with tags, fused parts or gaps K17N/K279N): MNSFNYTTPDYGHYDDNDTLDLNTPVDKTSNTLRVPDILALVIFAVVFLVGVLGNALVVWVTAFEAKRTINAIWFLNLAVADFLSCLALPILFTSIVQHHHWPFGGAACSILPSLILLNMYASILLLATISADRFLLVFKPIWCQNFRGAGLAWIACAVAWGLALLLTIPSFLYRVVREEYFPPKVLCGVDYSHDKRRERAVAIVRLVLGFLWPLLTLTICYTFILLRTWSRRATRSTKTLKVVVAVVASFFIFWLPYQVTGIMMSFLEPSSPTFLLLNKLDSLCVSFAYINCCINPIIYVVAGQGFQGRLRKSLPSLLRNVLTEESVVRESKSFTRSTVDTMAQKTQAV
# T5: C5aR1 mutants (N-terminus, ECL1, ECL2, ECL3) (Homo sapiens, UniProt P21730, K279N/T8A)
# T5 sequence (P21730 with tags, fused parts or gaps T8A/K279N): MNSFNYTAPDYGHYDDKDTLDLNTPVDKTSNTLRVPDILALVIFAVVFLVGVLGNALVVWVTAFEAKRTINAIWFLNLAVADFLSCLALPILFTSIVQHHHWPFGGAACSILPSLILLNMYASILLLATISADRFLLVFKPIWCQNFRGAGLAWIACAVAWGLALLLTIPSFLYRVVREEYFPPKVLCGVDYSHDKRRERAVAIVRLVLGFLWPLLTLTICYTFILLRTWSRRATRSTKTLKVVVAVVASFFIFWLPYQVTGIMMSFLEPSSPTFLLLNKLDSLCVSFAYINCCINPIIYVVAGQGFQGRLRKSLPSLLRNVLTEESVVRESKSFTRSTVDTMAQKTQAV
# B1: clone 66: anti-C5aR1 Site I antibody; VH SEQ ID NO: 483, VL SEQ ID NO: 543 (antibody, V domains shown)
# VH: QVQLQQSDAELVKPGASVKISCKASGYTFIDHAIHWVKQRPEQGLEWIGYISPGNGEIKYNEKFKAKATLTADKSSSAAYMQLNSLTSADSAVYFCKRALFYYTGKYQPMDYWGQGTTVTDSS
# VL: DIVMTQSQKFMSTTAGDRVSITCKASQNVGSAVVWYQQKPGRSPKLLIYSSSIRYTGVPDRFTGSGSGTDFTLTINSVQSEDLADYFCQQYNSFPLTFGAGTKLEIK
# B2: clone 329: anti-C5aR1 Site II antibody; VH SEQ ID NO: 492, VL SEQ ID NO: 552 (antibody, V domains shown)
# VH: QVQLQQSGAELTKPGASVKLSCKASGYTFTNYWMHWVKQRPGQGLEWIGYLNPSSGYTKYNQKFKDKATLTADKSSSTAYMQLNSLTYEDSAVYYCTRSGGDNYGNPYYFDRWGQGTTVTVSS
# VL: DVVMTQTPLSLTVSLGDQASISCRSSQSLVHSNGNTYLHWYLQKPGQSPKFLIYKVSNRFSGVPDRFSGSGSGTDFRLKISRVEAEDLGVYFCSQSTLVPLTFGAGTKLEIK
# B3: clone 583: anti-C5aR1 Site I antibody; VH SEQ ID NO: 536, VL SEQ ID NO: 595 (antibody, V domains shown)
# VH: EVQLVESGGGLVKPGGSLKLSCAASGFTFNAYAMSWVRQTPEKRLEWVASISTGGNTYCPDSVKDRFTVSRDNVRNILYLQMSSLRSEDTAMYYCTRGYQRFSGFAYWGQGTLVTVS
# VL: DVVMTQTPLSPPVSLGYQASISCRSSQSLVHSNGNTYLNWYLQKPGQSPKLLIYKVSNRLSGVPDRFSGSGSGTDFTLKISRVETEDLGVYFCSQSTHVPYTFGGGTKLEIK
# What was measured:
# Assay in all cases: Alanine scanning / mutagenesis epitope mapping of C5aR1
# Type in all cases: binding
# [1] = molecular target: T1, C5aR1 mutants (N-terminus, ECL1, ECL2, ECL3); details: G12E (as in cyno and rhesus)
# Text: (§1) FIG. 5A is a diagram showing the results of alanine scanning mutations of site I interaction with mab 583. The N-terminal amino acid sequence of C5aR1 is listed across the top of the figure. Glycosylation sites are indicated by rectangle boxes. The only natural glycosylation site is at position N5. The other sites were introduced by mutagenesis. Mutations that abolished clone 583 binding are circled. The sulfated tyrosines at positions 11 and 14 are marked with a star sign. FIG. 5B is a diagram showing results of alanine scanning mutations of site I interaction with mab 66. Mutations that abolished clone 66 binding are circled. The sulfated tyrosines at positions 11 and 14 are marked with a star sign.
# (§2) Ala substitutions of T8 & D10 moderately reduces its affinity while Y11 & D15 abolishes mAb binding. […] N-glycosylation of at N17 or D17P also abolishes mAb binding. N5 glycan is tolerated but a tandem glycosylation (N5 & N17) is not tolerated. mAb core epitopes are T8-G12 but nature of AA present in D15-D18 influence its binding. […] The core epitope appears to be located near T8-G12, with additional contributions from D15-D18.
# (§3) Clone 66 was previously characterized as a site I binder and its binding is dependent on tyrosine sulfation at positions 11Y and/or 14Y. […] It should be noted that the only the only non-human species to retain clone 66 binding was baboon, which is the only NHP that retains the DYGHY motif.
# (§4) However, it was unknown if additional contacts were made with ECL1 or ECL3. […] The data is highlighted in FIG. 5C-5E.
# (§5) The core epitope of clone 11 is from E180-P183; the core epitope of clone 329 is from E180-P184; and the core epitope of clone 336 is from R178-P183. […] The data for clones 11, 329, and 336 is highlighted in FIG. 5F.
# [2] = molecular target: T2, C5aR1 mutants (N-terminus, ECL1, ECL2, ECL3); details: Y14F
# Text: as §1, §2, §3, §4, §5
# [3] = molecular target: T3, C5aR1 mutants (N-terminus, ECL1, ECL2, ECL3); details: E179A
# Text: as §1, §2, §3, §4, §5
# [4] = molecular target: T4, C5aR1 mutants (N-terminus, ECL1, ECL2, ECL3); details: insertion of a glycan at K17N
# Text: as §1, §2, §3, §4, §5
# [5] = molecular target: T5, C5aR1 mutants (N-terminus, ECL1, ECL2, ECL3); details: T8A
# Text: as §1, §2, §3, §4, §5
molecule,measurement,setting,value
B1,binding to C5aR1 mutant,[1],abolishes binding
same,binding to C5aR1 mutant,[2],abolished binding
B2,binding to C5aR1 mutant,[3],did not reduce antibody affinity
B3,binding to C5aR1 mutant,[4],abolishes binding
same,binding to C5aR1 mutant,[5],moderately reduce binding
